± gives the standard deviation of the averaged measurements.
B1: library; a variant is named by its letters at N, in order (parent)
chain: GCUGUCACCGGUGCUUGGUACGUUAUAUUCAGCCGGUCUGAUGAGUCUNNNNNNAGACGAAACAGC

Tests used:
[1] = variants of: B1; test: FACS-Seq fitted mean relative fluorescence mCherry/BFP without ligand (log10 relative fluorescence); HEK293T overexpressing SLC46A1; higher = higher reporter protein expression; conditions: without (6R,S)-folinic acid; ligand present: no
Outline: (§1)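 Fluorescence figures are normalized fitted normal means of sequenced bin counts. Enriched, lentivirally transduced HEK293T libraries with a ribozyme-switch mCherry reporter and EF1α-BFP were held 48 h with or without ligand, then sorted into 6 mCherry/BFP bins. PCR-amplified, barcoded genomic DNA from each bin was sequenced on MiSeq. Means of log10(mCherry/BFP) were scaled to five spiked-in control ribozymes.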

[2] = variants of: B1; test: normalized RNA/DNA level without ligand (relative to sTRSVctl = 100) (log10 (% of sTRSVctl)); HEK293T overexpressing SLC46A1; higher = less ribozyme self-cleavage, higher mRNA level; conditions: without (6R,S)-folinic acid; ligand present: no
Experimental: (§2)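 Hammerhead (sTRSV) ribozyme switch libraries with a ligand aptamer grafted on stem I and a randomized N4-6 loop II, cloned into the 3' UTR of mCherry and transiently transfected into HEK293T cells; RNA-Seq 72 h post transfection with ligand added 1 h before transfection; RNA read count / plasmid DNA read count normalized to the non-cleaving sTRSVctl (x100), log10; sequences with >100 DNA reads. FACS-Seq: lentiviral library sorted into 6 bins after 48 h ligand, log-normal fit mean of mCherry/BFP scaled to controls. Printed sequences are partial switch sequences.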

[3] = variants of: B1; test: FACS-Seq fitted mean relative fluorescence mCherry/BFP with ligand (log10 relative fluorescence); HEK293T overexpressing SLC46A1; ligand concentration (+) FACS-Seq: 6 mM; higher = higher reporter protein expression; conditions: with (6R,S)-folinic acid; ligand present: yes
Outline: as §1

[4] = variants of: B1; test: normalized RNA/DNA level with ligand (relative to sTRSVctl = 100) (log10 (% of sTRSVctl)); HEK293T overexpressing SLC46A1; ligand concentration (+) RNA-Seq: 6 mM; higher = less ribozyme self-cleavage, higher mRNA level; conditions: with (6R,S)-folinic acid; ligand present: yes
Experimental: as §2

| Variant | FACS-Seq fitted mean (log10) [1] | normalized RNA/DNA level without ligand (log10) [2] | FACS-Seq fitted mean (log10) [3] | normalized RNA/DNA level with ligand (log10) [4] |
| --- | --- | --- | --- | --- |
| UGAAGU | 0.167 ± 0.1 | 1.907 ± 0.015 | 0.347 ± 0.17 | 2.01 ± 0.036 |
| CCCGGU | 0.139 ± 0.18 | 2.023 ± 0.0033 | 0.0649 ± 0.052 | 2.02 ± 0.029 |
| GUGAGA | 0.474 ± 0.23 | 1.973 ± 0.013 | 0.54 ± 0.081 | 2.02 ± 0.022 |
| UAUUUG | 0.00681 ± 0.018 | 1.82 ± 0.02 | 0.373 ± 0.0088 | 1.976 ± 0.017 |
| UAGACG | 0.218 ± 0.052 | 1.754 ± 0.0068 | 0.17 ± 0.055 | 1.97 ± 0.029 |
| GAUGGU | 0.536 ± 0.091 | 2.004 ± 0.0039 | 0.622 ± 0.045 | 2.02 ± 0.049 |
| ACGUUA | 0.21 ± 0.027 | 1.991 ± 0.011 | 0.285 ± 0.14 | 2.02 ± 0.027 |
| CAUAUC | -0.161 ± 0.056 | 2.078 ± 0.0032 | -0.426 ± 0.011 | 2.03 ± 0.034 |
| CAAUUA | 0.413 ± 0.065 | 1.963 ± 0.016 | 0.429 ± 0.07 | 1.989 ± 0.015 |
| CAGCCU | 0.13 ± 0.12 | 2.052 ± 0.016 | -0.235 ± 0.22 | 2.05 ± 0.061 |
| CAAGCU | 0.363 ± 0.071 | 2.047 ± 0.0037 | 0.443 ± 0.099 | 2.05 ± 0.043 |
| ACAGAG | 0.511 ± 0.086 | 1.6069 ± 0.00022 | 0.928 ± 0.2 | 1.94 ± 0.048 |
| GAUGUU | 0.317 ± 0.026 | 1.976 ± 0.0069 | 0.463 ± 0.066 | 2.01 ± 0.031 |
| AUGGUU | 0.245 ± 0.097 | 1.98 ± 0.026 | 0.136 ± 0.14 | 2.01 ± 0.027 |
| GAUUAA | 0.2664 ± 0.0013 | 1.977 ± 0.0031 | 0.453 ± 0.16 | 2 ± 0.028 |
| AUACGG | 0.263 ± 0.033 | 1.919 ± 0.0086 | 0.367 ± 0.16 | 1.98 ± 0.02 |
| UUGAAG | 0.386 ± 0.00085 | 1.75 ± 0.026 | 0.374 ± 0.21 | 1.981 ± 0.0095 |
| GGGAGG | 0.108 ± 0.032 | 2.014 ± 0.004 | 0.269 ± 0.081 | 2.04 ± 0.032 |
| GAAAGA | 0.353 ± 0.015 | 2.011 ± 0.011 | 0.607 ± 0.25 | 2.04 ± 0.024 |
| GAACGA | 0.313 ± 0.13 | 1.997 ± 0.012 | 0.623 ± 0.36 | 2.031 ± 0.02 |
| GUAGGG | 0.666 ± 0.045 | 1.881 ± 0.0094 | 0.643 ± 0.24 | 1.99 ± 0.024 |
| GAACAG | 0.808 ± 0.1 | 1.959 ± 0.0099 | 0.638 ± 0.1 | 2.01 ± 0.03 |
| ACGACG | 0.261 ± 0.092 | 1.93 ± 0.021 | 0.213 ± 0.08 | 2.0313 ± 0.0019 |
| UGCAUG | 0.298 ± 0.025 | 1.734 ± 0.0064 | 0.712 ± 0.11 | 1.97 ± 0.026 |

| Variant | FACS-Seq fitted mean (log10) [1] | normalized RNA/DNA level without ligand (log10) [2] | FACS-Seq fitted mean (log10) [3] | normalized RNA/DNA level with ligand (log10) [4] |
| --- | --- | --- | --- | --- |
| UGAUAA | 0.48 ± 0.24 | 1.926 ± 0.019 | 0.632 ± 0.35 | 2.004 ± 0.017 |
| CUUUUU | 0.61 ± 0.16 | 1.991 ± 0.013 | 0.733 ± 0.016 | 2.021 ± 0.018 |
| GGUUGA | 0.168 ± 0.043 | 2.083 ± 0.0081 | -0.309 ± 0.06 | 2.07 ± 0.031 |
| AACAAG | 0.152 ± 0.031 | 1.923 ± 0.0084 | 0.113 ± 0.2 | 2.02 ± 0.036 |
| AAGCCU | 0.313 ± 0.032 | 2.056 ± 0.015 | 0.326 ± 0.052 | 2.03 ± 0.027 |
| ACACCA | 0.658 ± 0.22 | 2.035 ± 0.0068 | 0.462 ± 0.1 | 2.03 ± 0.022 |
| ACUUUA | 0.348 ± 0.12 | 1.978 ± 0.014 | 0.366 ± 0.15 | 2.01 ± 0.028 |
| GAUACA | 0.251 ± 0.036 | 1.974 ± 0.0043 | 0.585 ± 0.09 | 1.98 ± 0.047 |
| ACAUCA | 0.659 ± 0.066 | 2.055 ± 0.0034 | 0.448 ± 0.075 | 2.05 ± 0.035 |
| UGUUAG | 0.447 ± 0.11 | 1.63 ± 0.04 | 0.762 ± 0.15 | 1.929 ± 0.016 |
| GUGAUA | 0.573 ± 0.073 | 1.97 ± 0.017 | 0.371 ± 0.036 | 2 ± 0.022 |
| GAAUUG | 0.416 ± 0.035 | 1.928 ± 0.0066 | 0.46 ± 0.014 | 2 ± 0.066 |
| UUAGGA | 0.674 ± 0.033 | 1.879 ± 0.014 | 0.677 ± 0.022 | 2 ± 0.045 |
| UCAAAA | 0.0137 ± 0.17 | 1.944 ± 0.012 | 0.0601 ± 0.04 | 1.99 ± 0.046 |
| CAUGUG | 0.241 ± 0.086 | 2 ± 0.025 | 0.351 ± 0.27 | 1.992 ± 0.011 |
| UGUAGG | 0.342 ± 0.083 | 1.61 ± 0.018 | 0.855 ± 0.1 | 1.92 ± 0.033 |
| CGAAAA | 0.189 ± 0.032 | 1.955 ± 0.014 | 0.493 ± 0.17 | 1.98 ± 0.022 |
| CUAUUG | 0.309 ± 0.21 | 2.023 ± 0.011 | 0.316 ± 0.2 | 2.01 ± 0.0053 |
| CUAGGC | 0.0076 ± 0.12 | 2.005 ± 0.0013 | 0.186 ± 0.24 | 2 ± 0.028 |
| CAAGAG | 0.355 ± 0.047 | 1.903 ± 0.013 | 0.365 ± 0.14 | 1.98 ± 0.024 |
| ACCGAA | 0.0903 ± 0.11 | 2.013 ± 0.0085 | -0.117 ± 0.18 | 2.03 ± 0.043 |
| GCUAAU | 0.513 ± 0.029 | 1.986 ± 0.0026 | 0.516 ± 0.027 | 2.02 ± 0.022 |
| AAGCAU | 0.218 ± 0.067 | 1.953 ± 0.019 | 0.102 ± 0.024 | 2.01 ± 0.039 |
| CAUUAU | 0.4935 ± 0.0016 | 1.976 ± 0.011 | 0.36 ± 0.13 | 1.98 ± 0.056 |

| Variant | FACS-Seq fitted mean (log10) [1] | normalized RNA/DNA level without ligand (log10) [2] | FACS-Seq fitted mean (log10) [3] | normalized RNA/DNA level with ligand (log10) [4] |
| --- | --- | --- | --- | --- |
| GAAUGA | 0.25 ± 0.057 | 1.992 ± 0.0057 | 0.299 ± 0.2 | 2.02 ± 0.022 |
| AUUAUU | 0.191 ± 0.11 | 2.02 ± 0.023 | 0.497 ± 0.056 | 2.03 ± 0.024 |
| AUGGAA | 0.0999 ± 0.019 | 1.919 ± 0.0071 | -0.0772 ± 0.045 | 1.993 ± 0.0063 |
| AUUAGG | 0.125 ± 0.18 | 1.9 ± 0.023 | 0.123 ± 0.074 | 2.01 ± 0.028 |
| AAAAAA | 0.489 ± 0.019 | 1.948 ± 0.013 | 0.43 ± 0.029 | 1.97 ± 0.036 |
| UUACGU | 0.339 ± 0.078 | 1.97 ± 0.0066 | 0.15 ± 0.074 | 2.01 ± 0.044 |
| AGGAAC | 0.484 ± 0.041 | 2 ± 0.012 | 0.434 ± 0.11 | 2.018 ± 0.02 |
| UACAGU | 0.183 ± 0.13 | 1.92 ± 0.021 | 0.133 ± 0.26 | 1.994 ± 0.0074 |
| AAAACU | 0.355 ± 0.07 | 2.024 ± 0.00081 | 0.358 ± 0.15 | 2.03 ± 0.035 |
| GACUAC | 0.495 ± 0.024 | 2.041 ± 0.011 | 0.191 ± 0.19 | 2.066 ± 0.016 |
| UCGAUG | 0.26 ± 0.021 | 1.797 ± 0.015 | 0.486 ± 0.017 | 1.97 ± 0.039 |
| UGUCGG | 0.0192 ± 0.057 | 1.66 ± 0.015 | 0.166 ± 0.29 | 1.94 ± 0.043 |
| GUGCUG | -0.457 ± 0.06 | 2.077 ± 0.012 | -0.879 ± 0.14 | 2.05 ± 0.065 |
| AUGCGA | 0.422 ± 0.019 | 1.979 ± 0.00081 | 0.569 ± 0.15 | 2.01 ± 0.035 |
| GACAAC | 0.378 ± 0.076 | 1.987 ± 0.0049 | 0.472 ± 0.21 | 2.004 ± 0.013 |
| GGGACA | 0.123 ± 0.064 | 1.997 ± 0.016 | 0.248 ± 0.14 | 2 ± 0.063 |
| GACGUA | 0.251 ± 0.023 | 1.9997 ± 0.00027 | 0.131 ± 0.26 | 2.03 ± 0.038 |
| CUGGCU | 0.556 ± 0.0076 | 2.033 ± 0.016 | 0.55 ± 0.13 | 2.02 ± 0.036 |
| UUAUAG | 0.192 ± 0.026 | 1.8081 ± 0.0015 | 0.396 ± 0.16 | 1.99 ± 0.034 |
| AAACCA | 0.226 ± 0.23 | 2 ± 0.01 | 0.0655 ± 0.071 | 2 ± 0.03 |
| UAUUGA | 0.265 ± 0.09 | 1.91 ± 0.025 | 0.57 ± 0.12 | 1.985 ± 0.003 |
| AGAUAA | 0.0208 ± 0.12 | 1.96 ± 0.006 | 0.14 ± 0.2 | 1.981 ± 0.012 |
| GGCGAU | 0.444 ± 0.0094 | 2.07 ± 0.027 | 0.55 ± 0.15 | 2.037 ± 0.015 |
| AAACAA | 0.376 ± 0.066 | 1.971 ± 0.0088 | 0.436 ± 0.009 | 1.99 ± 0.022 |
